Test results reported in patent US9738884B2, “Therapeutic agent for epithelial and endothelial injury” (NIHON UNIVERSITY, priority 2012, dated 2017).

System: A431 cells
Assay: Adhesion of A431 cells to the substrate, cells removed when the culture dish was shaken (Example 2)
Assay type: cell-based
Conditions: 1 pmol/ml, 96-well culture dish
Description: FIG. 2 is a graph showing the results of Example 2 of the present application. The numerical value of the vertical axis indicates the number of cells removed from the bottom surface when a culture dish was shaken.
A portion in the entire-length F9 (F9(47-471)), which has an activity of inducing spread of cells on a substrate, was determined using an ability to adhere to the substrate as an indicator. […] Thereafter, an F9 portion having an action to inhibit the aforementioned inhibitory action was examined under conditions in which a culture was performed at 37° C. for 24 hours and the culture dish was then shaken on a shaker. It is to be noted that F9(47-191) is a peptide consisting of amino acids at positions 47 to 191 in the amino acid sequence shown in SEQ ID NO: 8, and that F9(192-202) is a peptide consisting of amino acids at positions 192 to 202 in the amino acid sequence shown in SEQ ID NO: 8. […] Each of the numerical values (on the vertical axis) in the graph of FIG. 2 is indicated as a mean±SD (**: P<0.01). In addition, in FIG. 2, the term “47-191” indicates the conditions in which F9(47-191) was added, and the terms “47-471,” “192-236,” “192-216,” and “192-202” indicate the results obtained in the case of adding F9(47-471), F9(192-236), F9(192-216), and F9(192-202), respectively.

B1: F9(47-191): peptide consisting of amino acids at positions 47 to 191 of SEQ ID NO: 8 (mouse F9) (protein, listed as Mus musculus)
chain: YNSGKLEEFVRGNLERECIEERCSFEEAREVFENTEKTTEFWKQYVDGDQCESNPCLNGGICKDDISSYECWCQVGFEGRNCELDATCNIKNGRCKQFCKNSPDNKVICSCTEGYQLAEDQKSCEPTVPFPCGRASISYSSKKIT
  action on adhesion between the cells and the substrate: action to inhibit adhesion between the cells and the substrate
